Measured values from patent publication US9518103B2, “Optogenetic probes for measuring membrane potential” (President and Fellows of Harvard College, priority 2014, dated 2016).
Positions count from the first letter of the chain named. In names and notes the source's numbering stands. Several values for one entry are separate records, joined by “and”; a condition that tells them apart may be missing. Equal values may be shown once. Entries after “also recorded” stand apart in the source; their conditions may differ.

Key:
Type in all cases: cell-based
[1] = system: HEK293 cells; experiment: Optical crosstalk of blue illumination into QuasAr fluorescence; conditions: continuous 640 nm 300 W/cm^2
Description: FIGS. 5A-5B show the quantification of optical crosstalk of blue illumination into QuasAr fluorescence. Illumination sufficient to induce high-frequency trains of action potentials (488 nm, 140 mW/cm2) perturbed fluorescence of QuasArs by <1%. […] HEK293 cells expressing QuasAr1 or QuasAr2 were exposed to continuous excitation at 640 nm (300 W/cm^2) and pulses of illumination at 488 nm (50 ms, 5 Hz). The intensity of the blue pulses increased from 0.06 to 1.8 W/cm^2. […] Illumination with blue light at typical intensity used to excite a blue-light activator (CheRiff) (0.2 W/cm^2) increased QuasAr1 fluorescence by 1.1% and QuasAr2 fluorescence by 0.6%. Illumination at with blue light at 1 W/cm^2 increased QuasAr1 fluorescence by 3.4% and QuasAr2 fluorescence by 2.4%. Error bars represent s.e.m. for n=5 cells for each QuasAr.

[2] = system: HEK293T cells; experiment: Simultaneous whole-cell patch clamp electrophysiology and fluorescence in HEK cells (brightness, voltage sensitivity, speed); conditions: for Brightness (λexc = 640 nm) 0.7 W/cm^2 / Brightness (λexc = 640 nm) 800 W/cm^2 / Sensitivity (ΔF/F per 100 mV): HEK293 cells; for voltage sensitivity (ΔF/F per 100 mV) / brightness relative to wild-type Arch: HEK cells; for brightness compared with corresponding double mutants: eGFP fusions in HEK cells, exc. 640 nm
Protocol: Simultaneous electrophysiology and fluorescence in HEK cells: HEK293T cells (ATCC CRL-11268) were cultured and transfected following standard protocols.^10 Briefly, HEK-293 cells were grown at 37° C., 5% CO2, in DMEM supplemented with 10% FBS and penicillin-streptomycin. Plasmids were transfected using Transit 293T (Mirus) following the manufacturer's instructions, and assayed 48 hours later. The day before recording, cells were re-plated onto glass-bottom dishes (MatTek) at a density of ˜10,000 cells/cm^2.
Cells were supplemented with retinal by diluting stock retinal solutions (40 mM, DMSO) in growth medium to a final concentration of 5 μM, and then returning the cells to the incubator for 0.5-1 hour. All imaging and electrophysiology were performed in Tyrode buffer (containing, in mM: 125 NaCl, 2.5 KCl, 3 CaCl2, 1 MgCl2, 10 HEPES, 30 glucose pH 7.3, and adjusted to 305-310 mOsm with sucrose). A gap junction blocker, 2-aminoethoxydiphenyl borate (50 μM, Sigma), was added to eliminate electrical coupling between cells.
Filamented glass micropipettes (WPI) were pulled to a tip resistance of 5-10 MΩ, and filled with internal solution containing 125 mM potassium gluconate, 8 mM NaCl, 0.6 mM MgCl2, 0.1 mM CaCl2, 1 mM EGTA, 10 mM HEPES, 4 mM Mg-ATP, 0.4 mM Na-GTP (pH 7.3); adjusted to 295 mOsm with sucrose. Pipettes were positioned with a Sutter MP285 manipulator. Whole-cell, voltage and current clamp recordings were acquired using an […] 700B amplifier (Molecular Devices), filtered at 2 kHz with the internal Bessel filter and digitized with a National Instruments PCIE-6323 acquisition board at 5-10 kHz. Data was only acquired from HEK cells having reversal potentials between −10 and −40 mV, access resistance<25 MΩ and membrane resistance>0.5 GΩ.
Simultaneous whole-cell patch clamp recordings and fluorescence recordings were acquired on a home-built, inverted epifluorescence microscope, described previously^10 and described below in “Apparatus”. For step response measurements, voltage clamp electronics were compensated 90-95%. We examined variants of QuasAr1 with mutations at position 95 (Asn, Cys, Gin, His and Tyr) and position 106 (Arg, Asp, Asn, Cys, Glu, His, Lys and Tyr). These experiments confirmed that histidine at position 106 provided undetectable photocurrent, and the best combination of improved voltage sensitivity, and fast kinetics.
We compared the fluorescence, voltage sensitivity, and speed of the QuasArs to wild-type Arch in HEK cells, using epifluorescence microscopy and whole-cell patch clamp electrophysiology. Under low intensity illumination (640 nm, 500 mW/cm^2), QuasAr1 was 15-fold brighter than wild-type Arch, and QuasAr2 was 3.3-fold brighter (FIG. 1B; Methods).

[3] = system: cultured rat hippocampal neurons; experiment: Photocurrent in cultured rat hippocampal neurons; conditions: for photocurrent (in words): red (640 nm, 300 W/cm^2, tested up to 900 W/cm^2) or blue (488 nm, 500 mW/cm^2) illumination; for photocurrent: red illumination (640 nm, 300 W/cm^2)
Protocol: FIGS. 4A-4B show the photophysics of QuasArs in mammalian cells. […] Steady state photocurrents were calculated by averaging the current over the last 0.25 seconds of light exposure and subtracting the holding current (cells held at −65 mV) in the dark. These currents hyperpolarized cells by 25±4 mV and 19±3 mV, respectively. […] The double mutants had mutations at the locations of the proton acceptor (Asp95) and proton donor (Asp106) to the Schiff base. QuasAr1 includes mutations D95H, D106H, and QuasAr2 includes mutations D95Q, D106H. The three additional backbone mutations in the QuasArs (P60S, T80S, F161V) increased brightness relative to the double mutants, Fluorescence of each Arch mutant was measured with excitation at 640 nm and emission from 660-760 nm. To control for variation in expression level, fluorescence was normalized by eGFP fluorescence (λexc=488 nm, λem=510−550 nm). Error bars represent s.e.m. for measurements on n=5-10 cells.
Measurements were performed on primary cultures at 13-15 DIV. Experiments were conducted in Tyrode's solution containing 125 mM NaCl, 2.5 mM KCl, 3 mM CaCl2, 1 mM MgCl2, 10 mM HEPES, 30 mM glucose (pH 7.3) and adjusted to 305-310 mOsm with sucrose. Prior to imaging, neurons were incubated with 5 μM all-trans retinal for 30 minutes and then washed with Tyrode's solution.
Synaptic blockers were added to the imaging medium for measurements of single-cell electrophysiology (Arch photocurrents, and single-cell excitability). The blockers comprised NBQX (10 μM, Tocris), D(−)-2-amino-5-phosphonovaleric acid (APS; […]), and gabazine (SR-95531, 20 μM, Tocris). For measurements of channel rhodopsin photocurrents in neurons, TTX (1 μM, Tocris) was included along with the synaptic blockers to prevent recruitment of voltage gated sodium channels. […] Recordings were terminated if membrane resistance changed by >10%. Experiments were performed at 23° C. under ambient atmosphere unless otherwise noted.

[4] = low intensity illumination (640 nm, 500 mW/cm^2)

B1: QuasAr1: Archaerhodopsin 3 variant with mutations P60S, T80S, D95H, D106H, F161V; genetically encoded voltage indicator (protein)
chain: MDPIALQAGYDLLGDGRPETLWLGIGTLLMLIGTFYFLVRGWGVTDKDAREYYAVTILVSGIASAAYLSMFFGIGLTEVSVGGEMLDIYYARYAHWLFTTPLLLLHLALLAKVDRVTIGTLVGVDALMIVTGLIGALSHTAIARYSWWLFSTICMIVVLYVLATSLRSAAKERGPEVASTFNTLTALVLVLWTAYPILWIIGTEGAGVVGLGIETLLFMVLDVTAKVGFGFILLRSRAILGDTEAPEPSAGADVSAAD
increase of fluorescence by blue light ([1]; 488 nm 0.2 W/cm^2): 1.1%
increase of fluorescence by blue light ([1]; 488 nm 1 W/cm^2): 3.4%
response faster than fastest previously reported GEVIs [2]: more than 10 fold
response time [2]: 50 μs
voltage sensitivity compared with QuasAr2 [2]: three-fold less than the sensitivity of QuasAr2
τdown (+30 mV to −70 mV) % τ1 ([2]; 23° C.): 88%
τdown (+30 mV to −70 mV) τ1 ([2]; 23° C.): 0.07 ms
τdown (+30 mV to −70 mV) τ2 ([2]; 23° C.): 1.9 ms
τup (−70 mV to +30 mV) % τ1 ([2]; 23° C.): 94%
τup (−70 mV to +30 mV) τ1 ([2]; 23° C.): 0.05 ms
τup (−70 mV to +30 mV) τ2 ([2]; 23° C.): 3.2 ms
Brightness (λexc = 640 nm) 0.7 W/cm^2 ([2]; 23° C.): 15.2
Brightness (λexc = 640 nm) 800 W/cm^2 ([2]; 23° C.): 10.3
Sensitivity (ΔF/F per 100 mV) ([2]; 23° C.): 33%
step response time constant (single or first component) ([2]; 34° C., step −70 mV to +30 mV): ~0.05 ms
voltage sensitivity (ΔF/F per 100 mV) [2]: 32±3%
brightness compared with corresponding double mutants [2]: significantly brighter than the corresponding double mutants
brightness relative to wild-type Arch ([2]; high intensity (>100 W/cm^2)): 2.5 fold
brightness relative to wild-type Arch [2, 4]: 15 fold
step response time constant (single or first component) ([2]; room temperature (23° C.), step −70 mV to +30 mV): < 0.05 ms and 0.053 ± 0.002 ms
photocurrent (in words) [3]: Neither QuasAr1 nor QuasAr2 generated detectable photocurrent; also recorded: Neither QuasAr1 (n=9 cells) nor QuasAr2 (n=7 cells) generated detectable photocurrents
photocurrent [3]: 0 pA

B2: QuasAr2: Archaerhodopsin 3 variant with mutations P60S, T80S, D95Q, D106H, F161V; genetically encoded voltage indicator (protein)
chain: B1 chain with H95Q
increase of fluorescence by blue light ([1]; 488 nm 0.2 W/cm^2): 0.6%
increase of fluorescence by blue light ([1]; 488 nm 1 W/cm^2): 2.4%
weight of first component of bi-exponential step response ([2]; 23° C.): 68%
weight of second component of bi-exponential step response ([2]; 23° C.): 32%
τdown (+30 mV to −70 mV) % τ1 ([2]; 23° C.): 80%
τdown (+30 mV to −70 mV) τ1 ([2]; 23° C.): 1.0 ms
τdown (+30 mV to −70 mV) τ2 ([2]; 23° C.): 15.9 ms
τup (−70 mV to +30 mV) % τ1 ([2]; 23° C.): 68%
τup (−70 mV to +30 mV) τ1 ([2]; 23° C.): 1.2 ms
τup (−70 mV to +30 mV) τ2 ([2]; 23° C.): 11.8 ms
Brightness (λexc = 640 nm) 0.7 W/cm^2 ([2]; 23° C.): 3.4
Brightness (λexc = 640 nm) 800 W/cm^2 ([2]; 23° C.): 3.4
Sensitivity (ΔF/F per 100 mV) ([2]; 23° C.): 90%
step response time constant (second component) ([2]; 23° C., step −70 mV to +30 mV): 11.8 ± 1.5 ms
step response time constant (second component) ([2]; 34° C.): 3.2 ± 0.4 ms
weight of first component of bi-exponential step response ([2]; 34° C.): 62%
weight of second component of bi-exponential step response ([2]; 34° C.): 38%
τdown (+30 mV to −70 mV) % τ1 ([2]; 34° C.): 73%
τdown (+30 mV to −70 mV) τ1 ([2]; 34° C.): 0.3 ms
τdown (+30 mV to −70 mV) τ2 ([2]; 34° C.): 4.0 ms
τup (−70 mV to +30 mV) % τ1 ([2]; 34° C.): 62%
τup (−70 mV to +30 mV) τ1 ([2]; 34° C.): 0.3 ms
τup (−70 mV to +30 mV) τ2 ([2]; 34° C.): 3.2 ms
step response time constant (single or first component) ([2]; 34° C., step −70 mV to +30 mV): 0.3 ± 0.05 ms
voltage sensitivity (ΔF/F per 100 mV) [2]: 90±2%
brightness compared with corresponding double mutants [2]: significantly brighter than the corresponding double mutants
brightness relative to wild-type Arch ([2]; high intensity (>100 W/cm^2)): comparable
brightness relative to wild-type Arch [2, 4]: 3.3 fold
photocurrent (in words) [3]: Neither QuasAr1 nor QuasAr2 generated detectable photocurrent; also recorded: Neither QuasAr1 (n=9 cells) nor QuasAr2 (n=7 cells) generated detectable photocurrents
photocurrent [3]: 0 pA
